The values that follow come from CN109485724A (FUZHOU MAIXIN BIOTECHNOLOGY DEV CO LTD, dated 2019).

The experiment concerns the target T1, 重组Desmin蛋白 (人Desmin α螺旋杆状区第109位至第412位氨基酸片段 + 组氨酸标签, 大肠杆菌表达) (human, UniProt P17661 109-412).
T1 construct: range 109-412; Expressed in E. coli Rosetta from pET-28a(+) (EcoRI/HindIII), solubilised from inclusion bodies in 8 M urea and purified on Ni-NTA; also called 重组Desmin蛋白片段; 免疫原; not shown: histidine tag from vector pET28a(+)
The experiment can be described thus: indirect ELISA on coated recombinant Desmin; affinity constant calculated from the antibody concentration at half of the plateau OD450.

T1 sequence (P17661 109-412): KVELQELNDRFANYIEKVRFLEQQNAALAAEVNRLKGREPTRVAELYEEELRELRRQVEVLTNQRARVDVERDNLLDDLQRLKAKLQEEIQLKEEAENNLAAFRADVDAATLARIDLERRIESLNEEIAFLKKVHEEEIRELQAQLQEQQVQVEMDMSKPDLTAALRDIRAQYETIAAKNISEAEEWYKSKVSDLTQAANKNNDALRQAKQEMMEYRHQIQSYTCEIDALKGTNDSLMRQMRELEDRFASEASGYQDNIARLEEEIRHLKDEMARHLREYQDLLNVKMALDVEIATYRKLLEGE

B1: 抗Desmin蛋白单克隆抗体(14G1C12) (antibody, V domains shown)
VH: QIQLVQSGPELKKPGETVKISCKASGYTFTNYGMNWVKQAPGKGLKWMGWINTNTGEPTYAEEFKGRFAFSLETSASTAYLQINNLKNEDTATYFCAREFSSWGQGTLVTVSA
VL: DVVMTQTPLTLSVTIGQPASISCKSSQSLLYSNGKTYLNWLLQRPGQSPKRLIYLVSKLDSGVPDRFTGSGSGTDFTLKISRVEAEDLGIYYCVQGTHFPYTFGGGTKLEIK
notes: also called Desmin单克隆抗体; 14G1C12的Desmin
B1: the Ka is 6.82e+09 M⁻¹.
